Starred links: 1 amine or outer side, 2 acyl side, 3 side chain; linkers in the order of their positions; H or OH if unused. Positions of bridges follow the written chain, without caps; N, C: chain ends. Non-standard residues stand in square brackets, D forms with d. Groups on a side chain read outwards from the residue. Primed or numbered codes have the meaning given here. *: point of attachment. DOTA = O=C(O)CN1CCN(CC(=O)O)CCN(CC(=O)*)CCN(CC(=O)O)CC1; Ttds(3) = NCCCOCCOCCOCCCNC(=O)CCC(=O)*; mXylylene = c1cc(C[*:1])cc(C[*:2])c1; 3Amb = NCc1cccc(C(=O)O)c1; dNMeA = CN[C@H](C)C(=O)O; 4Amc = not defined here; AEEA = NCCOCCOCC(=O)O; Ttds″ = Ttds spacer; Sar = CNCC(=O)O Some results are limits rather than exact numbers.

To fix the notation:
B1: 3BP-3428 (peptide)
peptide: Ac-K([AEEA-DOTA])VYCE[dP]DWLTWAC-NH2
modifications: linker 4-13 via mXylylene
notes: also called Ac-Lys(DOTA-O2Oc)-Val-Tyr-[Cys(3MeBn)-Glu-pro-Asp-Trp-Leu-Thr-Trp-Ala-Cys]-NH2
B2: 3BP-3427 (peptide)
peptide: Ac-K(DOTA)VYCE[dP]DWLTWAC-NH2
modifications: linker 4-13 via mXylylene
SMILES: CC(=O)N[C@@H](CCCCNC(=O)CN1CCN(CC(=O)O)CCN(CC(=O)O)CCN(CC(=O)O)CC1)C(=O)N[C@H](C(=O)N[C@@H](Cc1ccc(O)cc1)C(=O)N[C@H]1CSCc2cccc(c2)CSC[C@@H](C(N)=O)NC(=O)[C@H](C)NC(=O)[C@H](Cc2c[nH]c3ccccc23)NC(=O)[C@H]([C@@H](C)O)NC(=O)[C@H](CC(C)C)NC(=O)[C@H](Cc2c[nH]c3ccccc23)NC(=O)[C@H](CC(=O)O)NC(=O)[C@H]2CCCN2C(=O)[C@H](CCC(=O)O)NC1=O)C(C)C
notes: also called Ac-Lys(DOTA)-Val-Tyr-[Cys(3MeBn)-Glu-pro-Asp-Trp-Leu-Thr-Trp-Ala-Cys]-NH2
B3: 3BP-3840 (peptide)
peptide: Ac-K(DOTA)VYCE[dP]DWLTWSC-NH2
modifications: linker 4-13 via 3MeBn
notes: also called Ac-Lys(DOTA)-Val-Tyr-[Cys(3MeBn)-Glu-pro-Asp-Trp-Leu-Thr-Trp-Ser-Cys]-NH2
B4: 3BP-2837 (peptide)
peptide: Ac-VYCEGDWLTWQC-NH2
modifications: linker 3-12 via mXylylene
SMILES: CC(=O)N[C@H](C(=O)N[C@@H](Cc1ccc(O)cc1)C(=O)N[C@H]1CSCc2cccc(c2)CSC[C@@H](C(N)=O)NC(=O)[C@H](CCC(N)=O)NC(=O)[C@H](Cc2c[nH]c3ccccc23)NC(=O)[C@H]([C@@H](C)O)NC(=O)[C@H](CC(C)C)NC(=O)[C@H](Cc2c[nH]c3ccccc23)NC(=O)[C@H](CC(=O)O)NC(=O)CNC(=O)[C@H](CCC(=O)O)NC1=O)C(C)C
B5: 3BP-3046 (peptide)
peptide: Ac-VYCE[dA]DWLTWQC-NH2
modifications: linker 3-12 via mXylylene
SMILES: CC(=O)N[C@H](C(=O)N[C@@H](Cc1ccc(O)cc1)C(=O)N[C@H]1CSCc2cccc(c2)CSC[C@@H](C(N)=O)NC(=O)[C@H](CCC(N)=O)NC(=O)[C@H](Cc2c[nH]c3ccccc23)NC(=O)[C@H]([C@@H](C)O)NC(=O)[C@H](CC(C)C)NC(=O)[C@H](Cc2c[nH]c3ccccc23)NC(=O)[C@H](CC(=O)O)NC(=O)[C@@H](C)NC(=O)[C@H](CCC(=O)O)NC1=O)C(C)C
notes: also called Ac-Val-Tyr-[Cys(3MeBn)-Glu-ala-Asp-Trp-Leu-Thr-Trp-Gln-Cys]-NH2
B6: 3BP-3279 (peptide)
peptide: {DOTA-Ttds″}-VYCE[dA]DWLTWAC-NH2
modifications: linker 3-12 via mXylylene; not fully specified
notes: also called DOTA-Ttds-Val-Tyr-[Cys(3MeBn)-Glu-ala-Asp-Trp-Leu-Thr-Trp-Ala-Cys]-NH2
B7: 3BP-3313 (peptide)
peptide: Ac-VYCE[Sar]DWLTWAC-NH2
modifications: linker 3-12 via mXylylene
SMILES: CC(=O)N[C@H](C(=O)N[C@@H](Cc1ccc(O)cc1)C(=O)N[C@H]1CSCc2cccc(c2)CSC[C@@H](C(N)=O)NC(=O)[C@H](C)NC(=O)[C@H](Cc2c[nH]c3ccccc23)NC(=O)[C@H]([C@@H](C)O)NC(=O)[C@H](CC(C)C)NC(=O)[C@H](Cc2c[nH]c3ccccc23)NC(=O)[C@H](CC(=O)O)NC(=O)CN(C)C(=O)[C@H](CCC(=O)O)NC1=O)C(C)C
notes: also called Ac-Val-Tyr-[Cys(3MeBn)-Glu-Nmg-Asp-Trp-Leu-Thr-Trp-Ala-Cys]-NH2
B8: 3BP-3270 (peptide)
peptide: {DOTA-Ttds(3)}-VYCE[dA]DWLTWQC-NH2
modifications: linker 3-12 via mXylylene
notes: also called DOTA-Ttds-Val-Tyr-[Cys(3MeBn)-Glu-ala-Asp-Trp-Leu-Thr-Trp-Gln-Cys]-NH2
B9: 3BP-3304 (peptide)
peptide: Ac-VYCE[Sar]DWLTWGC-NH2
modifications: linker 3-12 via mXylylene
SMILES: CC(=O)N[C@H](C(=O)N[C@@H](Cc1ccc(O)cc1)C(=O)N[C@H]1CSCc2cccc(c2)CSC[C@@H](C(N)=O)NC(=O)CNC(=O)[C@H](Cc2c[nH]c3ccccc23)NC(=O)[C@H]([C@@H](C)O)NC(=O)[C@H](CC(C)C)NC(=O)[C@H](Cc2c[nH]c3ccccc23)NC(=O)[C@H](CC(=O)O)NC(=O)CN(C)C(=O)[C@H](CCC(=O)O)NC1=O)C(C)C
notes: also called Ac-Val-Tyr-[Cys(3MeBn)-Glu-Nmg-Asp-Trp-Leu-Thr-Trp-Gly-Cys]-NH2
B10: 3BP-3281 (peptide)
peptide: Ac-VYCE[dNMeA]DWLTWAC-NH2
modifications: linker 3-12 via mXylylene
SMILES: CC(=O)N[C@H](C(=O)N[C@@H](Cc1ccc(O)cc1)C(=O)N[C@H]1CSCc2cccc(c2)CSC[C@@H](C(N)=O)NC(=O)[C@H](C)NC(=O)[C@H](Cc2c[nH]c3ccccc23)NC(=O)[C@H]([C@@H](C)O)NC(=O)[C@H](CC(C)C)NC(=O)[C@H](Cc2c[nH]c3ccccc23)NC(=O)[C@H](CC(=O)O)NC(=O)[C@@H](C)N(C)C(=O)[C@H](CCC(=O)O)NC1=O)C(C)C
notes: also called Ac-Val-Tyr-[Cys(3MeBn)-Glu-nma-Asp-Trp-Leu-Thr-Trp-Ala-Cys]-NH2
B11: 3BP-3282 (peptide)
peptide: Ac-VYCE[dP]DWLTWAC-NH2
modifications: linker 3-12 via mXylylene
SMILES: CC(=O)N[C@H](C(=O)N[C@@H](Cc1ccc(O)cc1)C(=O)N[C@H]1CSCc2cccc(c2)CSC[C@@H](C(N)=O)NC(=O)[C@H](C)NC(=O)[C@H](Cc2c[nH]c3ccccc23)NC(=O)[C@H]([C@@H](C)O)NC(=O)[C@H](CC(C)C)NC(=O)[C@H](Cc2c[nH]c3ccccc23)NC(=O)[C@H](CC(=O)O)NC(=O)[C@H]2CCCN2C(=O)[C@H](CCC(=O)O)NC1=O)C(C)C
notes: also called Ac-Val-Tyr-[Cys(3MeBn)-Glu-pro-Asp-Trp-Leu-Thr-Trp-Ala-Cys]-NH2
B12: 3BP-3284 (peptide)
peptide: Ac-VYCE[dA]DWLTWGC-NH2
modifications: linker 3-12 via mXylylene
SMILES: CC(=O)N[C@H](C(=O)N[C@@H](Cc1ccc(O)cc1)C(=O)N[C@H]1CSCc2cccc(c2)CSC[C@@H](C(N)=O)NC(=O)CNC(=O)[C@H](Cc2c[nH]c3ccccc23)NC(=O)[C@H]([C@@H](C)O)NC(=O)[C@H](CC(C)C)NC(=O)[C@H](Cc2c[nH]c3ccccc23)NC(=O)[C@H](CC(=O)O)NC(=O)[C@@H](C)NC(=O)[C@H](CCC(=O)O)NC1=O)C(C)C
notes: also called Ac-Val-Tyr-[Cys(3MeBn)-Glu-ala-Asp-Trp-Leu-Thr-Trp-Gly-Cys]-NH2
B13: 3BP-3058 (peptide)
peptide: Ac-VYCEGDWLTWAC-NH2
modifications: linker 3-12 via mXylylene
SMILES: CC(=O)N[C@H](C(=O)N[C@@H](Cc1ccc(O)cc1)C(=O)N[C@H]1CSCc2cccc(c2)CSC[C@@H](C(N)=O)NC(=O)[C@H](C)NC(=O)[C@H](Cc2c[nH]c3ccccc23)NC(=O)[C@H]([C@@H](C)O)NC(=O)[C@H](CC(C)C)NC(=O)[C@H](Cc2c[nH]c3ccccc23)NC(=O)[C@H](CC(=O)O)NC(=O)CNC(=O)[C@H](CCC(=O)O)NC1=O)C(C)C
B14: 3BP-3272 (peptide)
peptide: {DOTA-Ttds″}-VYCEGDWLTWAC-NH2
modifications: linker 3-12 via mXylylene; not fully specified
B15: 3BP-3430 (peptide)
peptide: {DOTA-4Amc}-VYCE[dP]DWLTWAC-NH2
modifications: linker 3-12 via mXylylene; reading uncertain
notes: also called DOTA-4Amc-Val-Tyr-[Cys(3MeBn)-Glu-pro-Asp-Trp-Leu-Thr-Trp-Ala-Cys]-NH2
B16: 3BP-3280 (peptide)
peptide: Ac-VYCE[dA]DWLTWAC-NH2
modifications: linker 3-12 via mXylylene
SMILES: CC(=O)N[C@H](C(=O)N[C@@H](Cc1ccc(O)cc1)C(=O)N[C@H]1CSCc2cccc(c2)CSC[C@@H](C(N)=O)NC(=O)[C@H](C)NC(=O)[C@H](Cc2c[nH]c3ccccc23)NC(=O)[C@H]([C@@H](C)O)NC(=O)[C@H](CC(C)C)NC(=O)[C@H](Cc2c[nH]c3ccccc23)NC(=O)[C@H](CC(=O)O)NC(=O)[C@@H](C)NC(=O)[C@H](CCC(=O)O)NC1=O)C(C)C
notes: also called Ac-Val-Tyr-[Cys(3MeBn)-Glu-ala-Asp-Trp-Leu-Thr-Trp-Ala-Cys]-NH2
B17: 3BP-3307 (peptide)
peptide: Ac-VYCE[Sar]DWLGWQC-NH2
modifications: linker 3-12 via mXylylene
SMILES: CC(=O)N[C@H](C(=O)N[C@@H](Cc1ccc(O)cc1)C(=O)N[C@H]1CSCc2cccc(c2)CSC[C@@H](C(N)=O)NC(=O)[C@H](CCC(N)=O)NC(=O)[C@H](Cc2c[nH]c3ccccc23)NC(=O)CNC(=O)[C@H](CC(C)C)NC(=O)[C@H](Cc2c[nH]c3ccccc23)NC(=O)[C@H](CC(=O)O)NC(=O)CN(C)C(=O)[C@H](CCC(=O)O)NC1=O)C(C)C
notes: also called Ac-Val-Tyr-[Cys(3MeBn)-Glu-Nmg-Asp-Trp-Leu-Gly-Trp-Gln-Cys]-NH2
B18: 3BP-3052 (peptide)
peptide: Ac-VYCAGDWLTWQC-NH2
modifications: linker 3-12 via mXylylene
SMILES: CC(=O)N[C@H](C(=O)N[C@@H](Cc1ccc(O)cc1)C(=O)N[C@H]1CSCc2cccc(c2)CSC[C@@H](C(N)=O)NC(=O)[C@H](CCC(N)=O)NC(=O)[C@H](Cc2c[nH]c3ccccc23)NC(=O)[C@H]([C@@H](C)O)NC(=O)[C@H](CC(C)C)NC(=O)[C@H](Cc2c[nH]c3ccccc23)NC(=O)[C@H](CC(=O)O)NC(=O)CNC(=O)[C@H](C)NC1=O)C(C)C
B19: 3BP-3429 (peptide)
peptide: {DOTA-3Amb}-VYCE[dP]DWLTWAC-NH2
modifications: linker 3-12 via mXylylene
SMILES: CC(C)C[C@@H]1NC(=O)[C@H](Cc2c[nH]c3ccccc23)NC(=O)[C@H](CC(=O)O)NC(=O)[C@H]2CCCN2C(=O)[C@H](CCC(=O)O)NC(=O)[C@@H](NC(=O)[C@H](Cc2ccc(O)cc2)NC(=O)[C@@H](NC(=O)c2cccc(CNC(=O)CN3CCN(CC(=O)O)CCN(CC(=O)O)CCN(CC(=O)O)CC3)c2)C(C)C)CSCc2cccc(c2)CSC[C@@H](C(N)=O)NC(=O)[C@H](C)NC(=O)[C@H](Cc2c[nH]c3ccccc23)NC(=O)[C@H]([C@@H](C)O)NC1=O
notes: also called DOTA-Mamb-Val-Tyr-[Cys(3MeBn)-Glu-pro-Asp-Trp-Leu-Thr-Trp-Ala-Cys]-NH2

For the experiment, the target named is human carbonic anhydrase 9 (CAIX) (human, UniProt Q16790 38-459). In words: FACS competition on HT-29 cells against tracer 3BP-2776; pIC50 category A = pIC50 >8.0. On the procedure: CAIX-expressing human HT-29 colorectal cancer cells (DSMZ, RRID: CVCL_0320) were cultured in McCoys's 5A modified medium (Biochrom, #F1015) including 10% fetal calf serum (FCS), 2 mM L-glutamine, 100 U/ml penicillin and 100 μg/mL streptomycin. Cells were detached with Accutase (Biolegend, #423201) and washed in FACS buffer (PBS including 1% FCS). Cells were diluted in FACS buffer to a final concentration of 500.000 cells per ml. 200 μL of the cell suspension were transferred to a u-shaped non-binding 96-well plate (Greiner) and cells were washed in ice-cold FACS buffer.
When biotinylated compounds were used an additional incubation step with 1 μg/mL APC-Streptavidin (Miltenyi; #130-106-791) in 50 μL FACS buffer for 30 minutes on ice was performed.
Cells were washed twice with ice-cold FACS buffer and analyzed in an Attune NxT flow cytometer (Thermo Fisher). Median fluorescence intensities (MFI) of the APC/Cy5-channel were calculated by Attune NxT software.
In the case of B1, the pIC50 is more than 8 pic50. For B2 the value was more than 8 pic50; for B3, more than 8 pic50; for B4, more than 8 pic50.

For B5, the pIC50 was more than 8 pic50. As to B6, the pIC50 is more than 8 pic50. The molecule B7 had a pIC50 of more than 8 pic50. With B8, the pIC50 was more than 8 pic50. For B9, the pIC50 is more than 8 pic50.

Consider B10, for which the pIC50 is more than 8 pic50. B11 gave a pIC50 of more than 8 pic50. Consider B12, for which the pIC50 was more than 8 pic50.

Take B13: the pIC50 was more than 8 pic50. In the case of B14, the pIC50 was more than 8 pic50. For B15 the value was more than 8 pic50. On to B16, for which the pIC50 was more than 8 pic50. Turning to B17, the pIC50 is more than 8 pic50.

For B18, the pIC50 is more than 8 pic50. As for B19, the pIC50 was more than 8 pic50.

These data come from patent US20250339569A1 (3B PHARMACEUTICALS, published 2025).
